The source of these data is PMC4197110.

The experiment deals with dynamic microtubules grown from GMPCPP-stabilized seeds (UniProt Q6B856). Nature of the experiment: optical trap rupture force assay.
Chain of UniProt Q6B856 (Q6B856 whole entry, looked up): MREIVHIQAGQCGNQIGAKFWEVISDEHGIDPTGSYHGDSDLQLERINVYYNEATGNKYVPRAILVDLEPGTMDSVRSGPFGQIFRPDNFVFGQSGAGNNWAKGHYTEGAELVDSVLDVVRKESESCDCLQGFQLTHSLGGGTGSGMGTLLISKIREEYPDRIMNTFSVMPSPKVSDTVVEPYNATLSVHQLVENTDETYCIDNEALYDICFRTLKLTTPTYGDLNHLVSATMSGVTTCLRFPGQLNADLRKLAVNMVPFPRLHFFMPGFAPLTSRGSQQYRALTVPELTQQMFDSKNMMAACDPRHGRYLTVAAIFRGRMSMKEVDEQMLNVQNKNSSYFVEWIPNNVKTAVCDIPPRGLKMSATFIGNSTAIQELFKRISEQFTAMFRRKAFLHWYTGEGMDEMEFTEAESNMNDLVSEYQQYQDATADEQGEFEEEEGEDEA

Turning to “dad1-1 kinetochore particles (from UniProt P40568 1-576) (complex)”, the mean rupture force is 2.7 pN.
